Experimental data as given in US20100062011A1.

Columns and labels:
[1] = molecular target: TetT3L, T-cell epitope peptide derived from tetanus toxoid
[2] = molecular target: DTL, T-cell epitope peptide derived from diphtheria toxoid; experiment: ELISA, serum dilutions on coated DTL peptide; control serum
[3] = molecular target: Amyloid β-peptide consisting of 42 amino acid residues (human); experiment: ELISA, serial 2-fold serum dilutions on coated Aβ (SEQ ID NO:2); negative control serum
[4] = molecular target: Peptide having the amino acid sequence of the 298th to 312th of Gag protein derived from HIV-1 (HIV-1); experiment: ELISA, serial 2-fold serum dilutions on coated Gag peptide; negative control serum

Row | Substance | antibody titer [1] | antibody titer [2] | antibody titer [3] | antibody titer [4]
1 | Serum of BALB/c mice given neither peptide nor binary mixed vaccine (Experiment 2) (antibody) | 3 | 3 | – | –
2 | Antiserum from BALB/c mice not vaccinated (negative control, Experiment 1) (antibody) | – | – | 9.2 | 5.7
